Patent publication US20230027475A1 (ADMARE THERAPEUTICS SOCIETY, published 2023)

B1: A073 (antibody, V domains shown)
VH: QEQLEESGGGLVKPEGSLTLTCTASGFSFSSSYYMCWVRQAPGRGLEWIACIYTSSGSAYYANWAKGRFTISRTSSTTVTLQMTRLTAADTATYFCVRNAVGSSYYLYLWGPGTLVTVSS
VL: QVLTQTPSPVSAAVGGTVTISCQASQSVAGNNYLSWYQQKPGQPPNLLIYSVSTLASGVPSRFKGSGSGTQFTLTISDLECDDAATYYCQGYYNDGIWAFGGGTEVVVK
notes: also called A073 anti-B5, Rb IgG; anti-B5-PE (A073, Rb IgG)
B2: A058 (antibody, V domains shown)
VH: B1 VH
VL: B1 VL
notes: also called A058 anti-B5, Rb/Mu IgG2a; A048/A058/A073
B3: A048 (antibody, V domains shown)
VH: B1 VH
VL: B1 VL
notes: also called anti-B5 A048 hIgG1
B4: A051 (antibody, V domains shown)
VH: QEQVEESGGGLAKPGASLTLTCEASGFTLSSYWMCWVRQAPGKGLEWIACIYGGSSGSTYYSNWAKGRFTISKTSSTTVTLQMTSLTAADTATYFCARDGSTWDYFRLWGPGTLVTVSS
VL: YDMTQTPSSVEAAVGGTVTIKCQASQSINTNYLSWYQQKPGQPPKLLIYQASTLESGVPSRFKGSGSGTEYTLTISDLECADAATYYCQGYYTVENIGNPFGGGTEVVVK
notes: also called anti-B5 rabbit antibody A051 hIgG1
B5: A050 (antibody, V domains shown)
VH: QSLEESGGDLVKPGASLTLTCTASGFSFSSSYWLCWARQAPGKGPEWIACIYNGDGSTHYASWAKGRFTISKSSSTTVTLQMTSLTAADTATYFCARDYTYNFYTYGFNLWGPGTLVTVSS
VL: FELTQTPSSVEAAVGGTVTINCQASQSVNIWASWYQQKPGQPPKLLIYKASTLASGVPSRFKGSGSGTEFTLTISDLECADAATYYCQGGYPSSSSGWAFGGGTEVVVK
notes: also called A050 (A56); anti-A56 rabbit antibody A050 hIgG1
B6: A054 (antibody, V domains shown)
VH: QEQVVESGGGLVKPGASLTLTCTASGFTLSSSYWICWVRQAPGKGPEWIACTYNGDGSTHYASWAKGRFTISKSSSTTVTLQMTSLTAADTATYFCARDYTDAFYTYGFNLWGPGTLVTVSS
VL: DIVMTQTPASVSEPVGGTVTIKCQASQSTSSYLAWYQQKPGQPPKLLIYRASSLASGVPSRFKGSGSATEFTLTISDLECADAATYYCQTGFYGSSGHTFGGGTEVVVK
notes: also called A054 (A56); anti-A56 rabbit antibody A054 hIgG1
B7: A059 (antibody, V domains shown)
VH: QSLEESGGDLVKPGASLTLTCTASGIDFSDIYYISWVRQAPGKGLEWIACTYAGSSGSTYYATWAKGRFTISKASSTTVTLQMTSLTAADTATYFCARDRYPGTSGRVYGMDLWGPGTLVTVSS
VL: VVMTQTPSSVSEPVGGTVTIKCQASQSISDLLSWYQQKPGQPPKLLIYSASTLASGVSSRFKGSGSGTEFTLTISDLECADAATYYCQCNYYSPTYGNGFGGGTEVVVK
notes: also called A059 anti-A56, Rb/Mu IgG2a; A049/A059/A056
B8: A056 (antibody, V domains shown)
VH: B7 VH
VL: B7 VL
notes: also called A056 anti-A56, Rb IgG; anti-A56-PE (A056, Rb IgG)
B9: A049 (antibody, V domains shown)
VH: B7 VH
VL: B7 VL
notes: also called A049 (A56); A049 anti-A56 hIgG1
B10: A047 (antibody, V domains shown)
VH: QEQLEESGGDLVKPEGSLTLTCTASGFSFSSSYWICWVRQAPGKGLEWIACIYAGSGGSTYYATWAKGRFTISKTSSTTVTLQMTSLTAADTASYFCVRAYSDRSGGYSFNLWGPGTLVTVSS
VL: QVLTQTASPVSAAVGGTVTINCQASQSVDNNNYLAWYQQKPGQPPKQLIYSASSLASGVPSRFKGSGSGTQFTLTISDVQCDDAATYYCLGSYDCSDADCYAFGGGTEVVVK
notes: also called A047 (A56); anti-A56 rabbit antibody A047 hIgG1

How the values were obtained:
[1] = molecular target: T1, Vaccinia virus B5 antigen, Western Reserve strain VVdd (eGFP) (Vaccinia virus, Western Reserve strain, UniProt Q01227 18-317); assay: flow cytometry on VVdd (eGFP)-infected A549 cells
T1 construct: also called B5 on VVdd (eGFP)-infected cells

[2] = molecular target: T2, Vaccinia virus A56 antigen (Wyeth VV sequence) expressed on HEK cells (Vaccinia virus, Wyeth strain, UniProt P20978 17-315); assay: immunohistochemistry (DAB) on histogel sections of HEK-A56 cells
T2 construct: also called HEK-A56; HEK-A56 (GFP)
T2 chain: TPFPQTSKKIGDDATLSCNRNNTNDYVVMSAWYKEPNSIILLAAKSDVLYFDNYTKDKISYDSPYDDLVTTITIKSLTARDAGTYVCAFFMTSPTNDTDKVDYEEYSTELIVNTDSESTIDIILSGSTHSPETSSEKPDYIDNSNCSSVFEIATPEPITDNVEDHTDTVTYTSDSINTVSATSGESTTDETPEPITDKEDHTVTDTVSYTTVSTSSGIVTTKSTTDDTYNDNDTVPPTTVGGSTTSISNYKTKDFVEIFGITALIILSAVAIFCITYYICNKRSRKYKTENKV

[3] = molecular target: T1, Vaccinia virus B5 antigen, Western …; assay: flow cytometry on VVdd (eGFP)-infected A549 cells; remark: listed apart in the source
[4] = molecular target: T1, Vaccinia virus B5 antigen, Western …; assay: flow cytometry on VVdd (eGFP)-infected HT29 cells
[5] = molecular target: T3, B5.hFc (Vaccinia virus, Wyeth strain, UniProt O57254 18-279); assay: SPR Biacore T200, antibody amine-coupled, […]
T3 construct: also called B5.hFc soluble antigen; B5 human Fc fusion protein

[6] = molecular target: T3, B5.hFc; assay: SPR Biacore T200, antibody amine-coupled, B5.hFc as analyte, 1:1 Langmuir fit
[7] = molecular target: T1, Vaccinia virus B5 antigen, Western …; assay: ELISA on plate-coated VVdd (eGFP) virus particles, HRP anti-hIgG Fc, upper panel
[8] = molecular target: T4, Vaccinia virus B5 antigen (Wyeth VV sequence) expressed on HEK cells (Vaccinia virus, Wyeth strain, UniProt O57254 18-317); assay: flow cytometry on HEK-B5 (GFP) cells
T4 construct: also called HEK-B5; HEK-B5 (GFP)

[9] = molecular target: T5, A56.hFc (Vaccinia virus, Wyeth strain, UniProt P20978 17-279); assay: SPR Biacore T200, antibody amine-coupled, A56.hFc as analyte, 1:1 Langmuir fit
T5 construct: also called A56 human Fc fusion protein; A56 protein
T5 chain: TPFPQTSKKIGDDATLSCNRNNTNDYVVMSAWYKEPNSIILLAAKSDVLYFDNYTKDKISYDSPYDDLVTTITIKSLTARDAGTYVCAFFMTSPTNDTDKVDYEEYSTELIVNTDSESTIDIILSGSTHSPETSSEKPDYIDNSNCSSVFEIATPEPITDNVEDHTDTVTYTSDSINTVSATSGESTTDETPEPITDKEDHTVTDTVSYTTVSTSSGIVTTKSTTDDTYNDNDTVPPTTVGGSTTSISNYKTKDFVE

[10] = molecular target: T4, Vaccinia virus B5 antigen (Wyeth VV …); assay: flow cytometry on HEK-B5 (GFP) cells (panel 'HEKB5')
[11] = molecular target: T5, A56.hFc; assay: SPR Biacore T200, antibody amine-coupled, […]
[12] = molecular target: T2, Vaccinia virus A56 antigen (Wyeth VV …); assay: flow cytometry on HEK-A56 (GFP) cells
[13] = molecular target: T6, Vaccinia virus A56 antigen, Western Reserve strain VVdd (eGFP) (Vaccinia virus, Western Reserve strain, UniProt Q01218 17-314); assay: ELISA on plate-coated VVdd (eGFP) virus particles, HRP anti-hIgG Fc, lower panel
T6 construct: also called A56 on VVdd (eGFP)-infected cells

[14] = molecular target: T6, Vaccinia virus A56 antigen, Western …
[15] = molecular target: T6, Vaccinia virus A56 antigen, Western …; assay: flow cytometry on VVdd (eGFP)-infected A549 cells
[16] = molecular target: T4, Vaccinia virus B5 antigen (Wyeth VV …); assay: immunohistochemistry (DAB) on histogel sections of HEK-B5 cells

Row | Binder | EC50 [1] [nM] | koff [9] [s⁻¹] | kon [9] [M⁻¹ s⁻¹] | binding result [10] | Kd [11] [nM] | binding result [12] | EC50 [15] [nM] | other results
1 | B1 | 3 |  |  |  |  |  |  | binding result [2]: no binding (tested: 10 ug/mL)
2 | B2 | 3 |  |  |  |  |  |  | binding result [2]: no binding (tested: 10 ug/mL)
3 | B3 | 9 |  |  |  |  |  |  | EC50 [3]: 6 nM; EC50 [4]: 1.1 nM; Kd [5]: 0.745 nM; koff [6]: 2.21e-05 s⁻¹; kon [6]: 29700 M⁻¹ s⁻¹
4 | B4 |  |  |  |  |  |  |  | binding result [7]: binds; binding result [8]: binds
5 | B5 |  | 5.07e-05 | 99800 | no binding (tested: about 330 nM) | 0.507 | binds |  | binding result [13]: binds
6 | B6 |  | 0.0141 | 925000 | no binding (tested: about 330 nM) | 15.3 | binds |  | EC50 (read off the curve) [14]: ~5 nM
7 | B7 |  |  |  |  |  |  | 5 | binding result [16]: no binding (tested: 10 ug/mL)
8 | B8 |  |  |  |  |  |  | 16 | binding result [16]: no binding (tested: 10 ug/mL)
9 | B9 |  | 2.27e-05 | 395000 |  | ≤ 0.1 |  | 14 | 
10 | B10 |  | 4.5e-05 | 19200 | no binding (tested: about 330 nM) | 2.34 | binds |  | binding result [13]: binds
